From article PMC11906780 (Scientific Reports, 2025)

Legend:
[1] = molecular target: RSV G^ecto with GalNAc-restricted O-glycosylation (Human respiratory syncytial virus A, …, UniProt P03423); assay: cryo-EM structure; conditions: both partners purified
[2] = molecular target: T1, RSV strain A2 (RSV/A2) G glycoprotein ectodomain (RSV G^ecto) (Human respiratory syncytial virus A, …, UniProt P03423); assay: BLI; conditions: both partners purified
T1 construct: not shown: 6xHistidine-Tag, C-terminal, kept
T1 sequence (P03423 whole entry, looked up, the tested form may be a part): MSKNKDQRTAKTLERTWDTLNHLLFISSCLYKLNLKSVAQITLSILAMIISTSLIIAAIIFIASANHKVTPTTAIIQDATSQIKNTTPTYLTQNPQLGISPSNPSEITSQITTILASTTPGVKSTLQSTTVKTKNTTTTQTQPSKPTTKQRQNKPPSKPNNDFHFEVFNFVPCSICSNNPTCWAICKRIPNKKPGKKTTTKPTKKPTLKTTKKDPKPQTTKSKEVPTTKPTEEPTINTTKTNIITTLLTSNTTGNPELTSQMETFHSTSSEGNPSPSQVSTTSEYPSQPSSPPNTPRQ

Sequence of RSV G^ecto with GalNAc-restricted O-glycosylation (P03423 whole entry, looked up, the tested form may be a part): as above

Binder | binding result [1] | binding result [2]
Fab 3D3 (papain fragment of mAb 3D3) (Fab, V domains shown, source: papain digestion of the full length mAb from CHO-S, Fc removed with protein A, purified (Superdex 200 SEC)) VH: EEQLVESGGGLVQPGRSLRLSCVGSGLRFEEHAMHWVRQAPGRGLEWVSGISWNSGSVGYADSVKGRFTTSRDNAKDILFLEMNTLRSEDTALYFCAIMVATTKNDFHYYKDVWGKGTTVTVSS VL: QIVLTQSPATLSLSPGERATLSCRASQSVSNHLAWYQQKPGQAPRLLIYETSNRATGIPPRFSGSGSGTDFTLTISSLEPEDFAVYYCQQRNNWYTFGQGTKLEIK | binds | 
human monoclonal antibody 3D3 (recombinant human IgG1) (antibody, V domains shown, also called mAb 3D3; TRL3D3; source: CHO-S, electroporated, purified (HiTrap Protein G)) VH: EEQLVESGGGLVQPGRSLRLSCVGSGLRFEEHAMHWVRQAPGRGLEWVSGISWNSGSVGYADSVKGRFTTSRDNAKDILFLEMNTLRSEDTALYFCAIMVATTKNDFHYYKDVWGKGTTVTVSS VL: QIVLTQSPATLSLSPGERATLSCRASQSVSNHLAWYQQKPGQAPRLLIYETSNRATGIPPRFSGSGSGTDFTLTISSLEPEDFAVYYCQQRNNWYTFGQGTKLEIK |  | binds
human monoclonal antibody 3G12 (recombinant human IgG1) (antibody, V domains shown, also called mAb 3G12; source: CHO-S, electroporated, purified (HiTrap Protein G)) VH: QLQLQESGPGLVKPSETLSLTCTVSGGSISSSNYYWGWIRQPPGKGLEWIASIHDSGSIYYNPSLRSRVTISVDTSKNQFSLKLSSVTAADTAVYYCARHLVWFGELRNNWFDPWGQGTLVTVAS VL: EIVMTQSPATLSVSPGERATLSCRASQSVNSNLAWYQHKPGQAPRLLIYGASTRATGIPARFSGSGSGTDFTLTISSLQSEDFAVYYCQQYNNWPLFGPGTKVDLK |  | binds
human monoclonal antibody 2D10 (recombinant human IgG1) (antibody, V domains shown, also called mAb 2D10; source: CHO-S, electroporated, purified (HiTrap Protein G)) VH: QVQLVQSGPEVKKPGASVRLSCKASGYVFTNYGVSWVRQAPGQGLEWMGWSSPYNGNTYYAQKLKARVTMTTDTSTNTAYMELRSLRSDDTAVYYCGRDMLGVVQAVAGPFDSWGQGTLVTVSS VL: DTPMTQSPSSVSASVGDRVTISCRASQGISNSLAWYQQKLGKAPQLLIYAASSLQSGVPSRFSGSGSGTDFTLTISSLQPEDFATYYCQQTNTFPFTFGPGTKVEVR |  | binds
Fab 2D10 (papain fragment of mAb 2D10) (Fab, V domains shown, source: papain digestion of the full length mAb from CHO-S, Fc removed with protein A, purified (Superdex 200 SEC)) VH: QVQLVQSGPEVKKPGASVRLSCKASGYVFTNYGVSWVRQAPGQGLEWMGWSSPYNGNTYYAQKLKARVTMTTDTSTNTAYMELRSLRSDDTAVYYCGRDMLGVVQAVAGPFDSWGQGTLVTVSS VL: DTPMTQSPSSVSASVGDRVTISCRASQGISNSLAWYQQKLGKAPQLLIYAASSLQSGVPSRFSGSGSGTDFTLTISSLQPEDFATYYCQQTNTFPFTFGPGTKVEVR | binds | 
